The record followed here is patent US20250313612A1 (Adimab, published 2025).

The target of test [1] is T1, RSV F ectodomain stabilized in the postfusion conformation (F ΔFP), subtype B (Respiratory syncytial virus subtype B, UniProt P13843 26-109; P13843 147-524).
T1 construct: extracellular domain; trimer; also called Postfusion subtype B; postF subtype B
The experiment in a line: BLI, IgG on AHQ sensor, 100 nM antigen. In general terms: In BLI a coated tip is dipped into the sample, and binding shifts an interference pattern.

Test [2] has as its target T2, RSV F ectodomain stabilized in the postfusion conformation (F ΔFP), subtype A (Respiratory syncytial virus subtype A, UniProt P03420 26-109; P03420 147-524).
T2 construct: extracellular domain; trimer; furin-cleaved; also called Postfusion subtype A
In words: BLI, IgG on AHQ sensor, 100 nM antigen.

Test [3] addresses RSV F protein of recombinant mKate-RSV, subtype B (18537) (Respiratory syncytial virus subtype B …, UniProt P13843 26-574). In words: cell-based or functional assay.
The target in test [4] is RSV F protein of recombinant mKate-RSV, subtype A (strain A2) (Respiratory syncytial virus subtype A …, UniProt P03420 26-574). The experiment in a line: cell-based or functional assay.

Some results are limits rather than exact numbers.

B1: ADI-14491 (antibody, V domains shown)
VH: EVQLVESGGGVVQPGRSLRLSCAASGFTFSDHAMYWVRQAPGKGLEWVALISFDGRNIYYADSVKGRFTISRDNSKNTLYLQMNSLRAEDTAVYYCARDQWLVPDYWGQGTLVTVSS
VL: QSVLTQPASVSGSPGQSITISCTGTSSDVGGYNYVSWYQQHPGNAPKLMIYEVSKRPSGVPDRFSGFKSGNTASLTVSGLQAEDEADYYCSSYAGSNSVFGTGTKVTVL
notes: full-length IgG (yeast-expressed); also called Antibody Number 52; Ab# 52
Broadly, the Kd is the equilibrium constant for the complex coming apart. For B1, the Kd turned out to be 0.158 nM in test [1] and 0.238 nM in test [2]. Moreover, in test [3], the “Neut IC50 subtype B” value worked out at 0.102 µg/mL. Besides, in test [4], the “Neut IC50 subtype A” value was 0.105 µg/mL.

B2: ADI-14525 (antibody, V domains shown)
VH: EVQLLESGGGVVQPGRSLRLSCTASGFTFSDHAMYWVRQAPGKGLEWVALISFDGRNIYYADSVKGRFTISRDNSKNTLYLQMNSLRAEDTAVYYCARDQWLVPDYWGQGTLVTVSS
VL: QSVLIQPASVSGSPGQSITISCTGTSSDVGGYNYVSWYQQHPGNAPKLMIYEVSKRPSGVPDRFSGFKSGNTASLTVSGLQAEDEADYYCSSYAGSNSVFGTGTQLTVL
notes: full-length IgG (yeast-expressed); also called Antibody Number 85; Ab# 85
Consider B2, for which the dissociation constant Kd in test [1] was determined as 0.149 nM; in test [2], 0.23 nM. Besides, the “Neut IC50 subtype B” value in test [3] is 0.108 µg/mL. Moreover, the “Neut IC50 subtype A” value in test [4] stood at 0.135 µg/mL.

B3: ADI-14494 (antibody, V domains shown)
VH: EVQLVESGGGVVQPGRSLRLSCAASGFTFSDHAMYWVRQAPGKGLEWVALISFDGRNIYYADSVKGRFTISRDNSKNTLYLQMNSLRAEDTAVYYCARDQWLVPDYWGQGTLVTVSS
VL: QSALTQPASVSGSPGQSITISCTGTSSDVGGYNYVSWYQQHPGNAPKLMIYEVSKRPSGVPDRFSGFKSGNTASLTVSGLQAEDEADYYCSSYAGSNSVFGTGTKVTVL
notes: full-length IgG (yeast-expressed); also called Antibody Number 55; Ab# 55
Turning to B3, the Kd is 0.155 nM in test [1] and 0.24 nM in test [2]. Besides, in test [3], the “Neut IC50 subtype B” value came to 0.089 µg/mL. For the same molecule, the “Neut IC50 subtype A” value in test [4] was 0.084 µg/mL.

B4: ADI-14461 (antibody, V domains shown)
VH: EVQLVESGGGVVQPGRSLRLSCAASGFTFSDHAMYWVRQAPGKGLEWVALISFDGRNIYYADSVKGRFTISRDNSKNTLYLQMNSLRAEDTAVYYCARDQWLVPDYWGQGTLVTVSS
VL: LPVLTQPASVSGSPGQSITISCTGTSSDVGGYNYVSWYQQHPGNAPKLMIYEVSKRPSGVPDRFSGFKSGNTASLTVSGLQAEDEADYYCSSYAGSNSVFGTGTKLTVL
notes: full-length IgG (yeast-expressed); also called Antibody Number 24; Ab# 24
B4: the Kd in test [1] amounted to 0.156 nM; in test [2], 0.231 nM. Moreover, the “Neut IC50 subtype B” value in test [3] came to 0.152 µg/mL. In addition, the “Neut IC50 subtype A” value in test [4] is 0.129 µg/mL.

B5: ADI-14438 (antibody, V domains shown)
VH: QVQLVQSGAEVKKPGASVKVSCRASGFVFTSYDINWVRQAPGQGLEWMGRMNAHTGQVTYAQKFQDKVSMTRDVSITTAYLELSRLASEDTAVYYCARPDINWGQDAFDVWGQGTMVTVSS
VL: DIRMTQSPSTLSASIGARVTITCRASQNIGNFLAWYQQKPGKAPKLLIYKASTLDPGVPSRFSGSGSGTEFTLTITSLQPDDFATFYCQQYKSDPTFGQGTKVEIK
notes: full-length IgG (yeast-expressed); also called Antibody Number 1; Ab# 1
For the molecule B5, the Kd in test [1] was 8.29 nM; in test [2], 11.8 nM. For the same molecule, the “Neut IC50 subtype B” value in test [3] is 0.237 µg/mL. In addition, the “Neut IC50 subtype A” value in test [4] was determined as 0.289 µg/mL.

B6: ADI-14498 (antibody, V domains shown)
VH: EVQLVESGPTLVKPTQTLTLTCTFSGFSLTTRGMGVGWIRQPPGRSLEWLAVIYWDGDVRYSPSLKGRLTITKDTPKNQVVLTMTNMDPVDTATYYCVHSDLYDRNAYYLHYFDFWGQGTLVTVSS
VL: DIRLTQSPSSLSASVGDRVTITCRASQIIASYLNWYQQKPGKAPNLLIFAASSLQSGVPSRFRGSGSGTDFTLTISSLQPEDFATYYCQQSYSIPYTFGQGTKLEIK
notes: full-length IgG (yeast-expressed); also called Antibody Number 59; Ab# 59
Take B6: the figures for the Kd in test [1] and in test [2] were 2.27 nM and 0.412 nM, respectively. The “Neut IC50 subtype B” value in test [3] was above 10 µg/mL. The “Neut IC50 subtype A” value in test [4] is above 10 µg/mL.

B7: ADI-14497 (antibody, V domains shown)
VH: QITLKESGPTLVKPTQTLTLTCTFSGFSLTTRGVGVGWIRQPPGKALEFLGFIHWDDDKTYSPSLRRRLTITKDTSNNEVVLTMTNMDPVDTATYYCVHSDLYDSGGYYLYYFDYWGQGTLVTVSS
VL: EIVMTQSPSSLSASVGDRVTITCRASQPIPSYVNWYQQRPGKAPKLLIYAASNLQSGVSSKFSGRGFGTDFTLTIDTLQPEDFATYYCQQVYTSPYTFGQGTKLEIK
notes: full-length IgG (yeast-expressed); also called Antibody Number 58; Ab# 58
B7: the figures for the dissociation constant (Kd) in test [1] and in test [2] were 4.82 nM and 0.358 nM, respectively. In test [3], the “Neut IC50 subtype B” value worked out at 0.116 µg/mL. Besides, the “Neut IC50 subtype A” value in test [4] turned out to be 0.115 µg/mL.

B8: ADI-14443 (antibody, V domains shown)
VH: QVQLVQSGTEVKKPGSSVKVSCKASGGTFGSYAVIWVRQAPGQGLEWMGHFIPVFATTNKAQKFQGRLTLSTDESTGTVYMELSSLRSEDTAVYFCATKRYCSDPSCHGLWYFDLWGRGTLVTVSS
VL: DIQLTQSPLSLPVTPGEPASISCRSSQSLLDSDDGNTYLDWYLQKPGQSPQVLIYMLSYRASGVPDRFSGSGSGTDFTLEISRVEAEDVGVYYCMQRVEFPYTFGQGTKLEIK
notes: full-length IgG (yeast-expressed); also called Antibody Number 6; Ab# 6
Take B8: the Kd in test [1] was found to be 0.137 nM; in test [2], 0.19 nM. The “Neut IC50 subtype B” value in test [3] came out at 0.063 µg/mL. Besides, in test [4], the “Neut IC50 subtype A” value turned out to be 0.047 µg/mL.

B9: ADI-14471 (antibody, V domains shown)
VH: QVQLVQSGAEVKKPGSSVKVSCKASGGTFGSYAVIWVRQAPGQGLEWMGHIIPVFGTINNAQKFQGRLTLSADESTGTVYMGLSSLRSDDTAVYFCATKRYCSDPSCHGLWYFDLWGRGTLVTVSS
VL: DIRLTQSPLSLPVTPGEPASISCRSSQSLLDSDDGNTYLDWYLQKPGQSPQVLIYMLSYRASGVPDRFSGSGSGTDFTLKISRVEAEDVGVYYCMQRAEFPYTFGQGTKLEIK
notes: full-length IgG (yeast-expressed); also called Antibody Number 34; Ab# 34
Turning to B9, the dissociation constant (Kd) in test [1] is 0.15 nM; in test [2], 0.212 nM. Further, the “Neut IC50 subtype B” value in test [3] is 0.116 µg/mL. The “Neut IC50 subtype A” value in test [4] was found to be 0.096 µg/mL.

B10: ADI-14486 (antibody, V domains shown)
VH: QVQLQESGPGLVKPSETLSLTCTVSGGSINNYFWSWIRQPPGKGLEWLGYIYNSGSTYYNPSLNSRVTISLQKSKNQFSLHLTSMTAADTAVYFCARHPSVIYGTFGANGGPNWFDPWGQGTLVTVSS
VL: QSVLTQPASVSGSPGQSITISCTGTSSDVGGYNYVSWYQQHPGKAPKLMIFDVTYRPSGISNRFSGSKSGNTASLTISGLHSEDEADYYCSSYTGSNTVIFGGGTKLTVL
notes: full-length IgG (yeast-expressed); also called Antibody Number 47; Ab# 47
Turning to B10, the Kd is 0.636 nM in test [1] and 0.529 nM in test [2].

B11: ADI-14492 (antibody, V domains shown)
VH: EVQLVESGGGLVRPGGSLGLSCSASGFIFSNAWMTWVRQAPGKGLEWVGHIKSKVNGGTTAYGAPVKGRFTISRDDSRNTLFLQMNSLKTEDTGVYYCTTGPPYQYFDDSGYSVVDYWGQGTLVTVSS
VL: QSVVTQPPSASGTPGQRVTISCSGSDSNIGTDYFYWYQQLPGSAPKLLIYGSNQRPSGVPDRFSGSQSGSAASLAISGLRSEDDADYYCAAWDDSLGGPVFGGGTKVTVL
notes: full-length IgG (yeast-expressed); also called Antibody Number 53; Ab# 53
For B11, the Kd was found to be 0.111 nM in test [1] and 0.166 nM in test [2]. For the same molecule, in test [3], the “Neut IC50 subtype B” value stood at 0.681 µg/mL. Besides, the “Neut IC50 subtype A” value in test [4] was 0.204 µg/mL.

B12: ADI-14495 (antibody, V domains shown)
VH: QITLKESGPTLVKPTQTLTLTCSFSGFSLTTRGVGVGWVRQPPGKALECLGFVYWDDDKRYSPSLRSRLTISEDTSKNQVVLTMTNMDPLDTATYYCVHSDLYDRGGYYLFYFDYWGQGTLVTVSS
VL: DIVLTQSPSSLSASVGDRVTITCRASQPIASYLNWYQHKPGKAPKLLIYAASSLQSGVSSTFSGRGSGTDFTLTITALQPEDFAIYYCQQSYTFPYTFGQGTKVDIK
notes: full-length IgG (yeast-expressed); also called Antibody Number 56; Ab# 56
As to B12, the Kd in test [1] turned out to be 1.71 nM; in test [2], 0.367 nM. Further, the “Neut IC50 subtype B” value in test [3] came to 17.4 µg/mL. For the same molecule, the “Neut IC50 subtype A” value in test [4] came to 0.864 µg/mL.
